Our source for the binding signal and Kd values is paper PMC2807882, “Conservation of DNA-binding specificity and oligomerisation properties within the p53 family”.

Experiment in all cases: anisotropy competition; 25 mM NaPi, 225 mM NaCl, 10% v/v glycerol, 5 mM DTT, 0.2 mg/mL BSA, 22°C; 20 nM labelled DNA; pH not stated for the binding assay
Conditions in all cases: protein: recombinant; tags: N-terminal 6xHis-lipoyl-TEV tag, cleaved; chain copies: 4

Series [1] has as its target T1, Xlp53 (Xenopus laevis, UniProt Q7T1D0 1-362).
For series [2], the target named is T2, Drp53 (Danio rerio, UniProt P79734 1-373).
T2 sequence: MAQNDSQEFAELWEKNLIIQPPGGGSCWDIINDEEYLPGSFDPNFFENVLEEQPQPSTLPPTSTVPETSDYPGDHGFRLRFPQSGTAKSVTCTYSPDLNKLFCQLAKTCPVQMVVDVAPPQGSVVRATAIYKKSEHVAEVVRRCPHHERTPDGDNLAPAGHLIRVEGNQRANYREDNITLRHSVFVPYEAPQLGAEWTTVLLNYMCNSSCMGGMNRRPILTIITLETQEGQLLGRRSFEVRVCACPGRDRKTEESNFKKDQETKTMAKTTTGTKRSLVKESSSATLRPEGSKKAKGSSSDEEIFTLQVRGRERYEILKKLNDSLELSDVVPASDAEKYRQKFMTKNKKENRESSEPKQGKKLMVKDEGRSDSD

Series [3] deals with T3, ΔNp63γ (Homo sapiens, UniProt Q9H3D4-6 1-393).
T3 sequence: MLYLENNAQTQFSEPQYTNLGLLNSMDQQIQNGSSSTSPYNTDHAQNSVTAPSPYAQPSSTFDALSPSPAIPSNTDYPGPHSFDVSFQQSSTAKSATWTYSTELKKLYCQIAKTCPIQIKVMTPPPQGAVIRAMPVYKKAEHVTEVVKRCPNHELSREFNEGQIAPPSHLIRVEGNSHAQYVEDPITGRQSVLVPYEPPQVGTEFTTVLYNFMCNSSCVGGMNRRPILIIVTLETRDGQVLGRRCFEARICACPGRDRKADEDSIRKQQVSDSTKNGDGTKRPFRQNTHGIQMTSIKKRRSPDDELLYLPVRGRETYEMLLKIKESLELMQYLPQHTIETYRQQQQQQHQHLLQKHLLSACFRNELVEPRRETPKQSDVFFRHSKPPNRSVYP

For series [4], the target named is T4, ΔNp63α (Homo sapiens, UniProt Q9H3D4-2 1-586).
T4 sequence: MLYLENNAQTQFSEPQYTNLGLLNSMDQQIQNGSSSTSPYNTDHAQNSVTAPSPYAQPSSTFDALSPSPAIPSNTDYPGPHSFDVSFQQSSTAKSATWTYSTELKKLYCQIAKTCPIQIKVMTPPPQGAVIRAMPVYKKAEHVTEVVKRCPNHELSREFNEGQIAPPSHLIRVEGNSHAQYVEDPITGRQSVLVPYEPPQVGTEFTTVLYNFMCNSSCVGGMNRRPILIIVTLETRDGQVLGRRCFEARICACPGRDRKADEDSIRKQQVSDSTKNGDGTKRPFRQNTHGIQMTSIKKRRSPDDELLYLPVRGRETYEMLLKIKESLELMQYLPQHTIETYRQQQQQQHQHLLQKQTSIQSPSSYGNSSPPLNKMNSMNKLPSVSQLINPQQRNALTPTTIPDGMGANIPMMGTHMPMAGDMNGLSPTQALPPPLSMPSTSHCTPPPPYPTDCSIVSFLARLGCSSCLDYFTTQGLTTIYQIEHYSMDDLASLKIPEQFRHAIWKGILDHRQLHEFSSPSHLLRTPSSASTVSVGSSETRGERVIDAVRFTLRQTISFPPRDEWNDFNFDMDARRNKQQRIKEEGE

For series [5], the target named is T5, ΔNp63β (Homo sapiens, UniProt Q9H3D4-4 1-461).
T5 sequence: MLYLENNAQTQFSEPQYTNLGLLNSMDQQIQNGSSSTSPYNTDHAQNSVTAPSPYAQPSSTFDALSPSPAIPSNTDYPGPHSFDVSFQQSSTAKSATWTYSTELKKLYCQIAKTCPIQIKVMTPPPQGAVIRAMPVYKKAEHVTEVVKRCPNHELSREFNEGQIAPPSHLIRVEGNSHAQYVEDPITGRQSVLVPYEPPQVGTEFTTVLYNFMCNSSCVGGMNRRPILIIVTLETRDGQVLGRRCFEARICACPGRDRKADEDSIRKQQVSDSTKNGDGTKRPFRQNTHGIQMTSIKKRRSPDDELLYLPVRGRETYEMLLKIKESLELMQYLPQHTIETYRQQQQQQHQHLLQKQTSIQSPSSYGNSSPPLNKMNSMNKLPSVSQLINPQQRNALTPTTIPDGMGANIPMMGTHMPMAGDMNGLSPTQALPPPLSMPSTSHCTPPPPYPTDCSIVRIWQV

Series [6] addresses T6, ΔNp73β (Homo sapiens, UniProt O15350-9 1-450).
T6 sequence: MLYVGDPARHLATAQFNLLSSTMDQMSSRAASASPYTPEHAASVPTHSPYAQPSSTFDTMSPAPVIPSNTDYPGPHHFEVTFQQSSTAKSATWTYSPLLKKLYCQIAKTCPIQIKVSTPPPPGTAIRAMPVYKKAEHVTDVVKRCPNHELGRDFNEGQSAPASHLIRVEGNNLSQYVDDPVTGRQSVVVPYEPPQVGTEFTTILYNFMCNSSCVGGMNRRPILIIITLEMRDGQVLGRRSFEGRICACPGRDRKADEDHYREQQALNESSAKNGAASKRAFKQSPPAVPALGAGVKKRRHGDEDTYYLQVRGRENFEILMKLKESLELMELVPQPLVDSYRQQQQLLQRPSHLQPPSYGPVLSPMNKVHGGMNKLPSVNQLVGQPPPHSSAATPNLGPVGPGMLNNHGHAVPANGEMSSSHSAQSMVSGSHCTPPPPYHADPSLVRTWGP

Series [7] has as its target Hsp53 (Homo sapiens, UniProt P04637 1-393).
Series [8] addresses Mmp53 (Mus musculus, UniProt P02340 1-390).
Series [9] concerns the target T7, Dmp53 (Drosophila melanogaster, UniProt Q9N6D8 1-385).
T7 sequence: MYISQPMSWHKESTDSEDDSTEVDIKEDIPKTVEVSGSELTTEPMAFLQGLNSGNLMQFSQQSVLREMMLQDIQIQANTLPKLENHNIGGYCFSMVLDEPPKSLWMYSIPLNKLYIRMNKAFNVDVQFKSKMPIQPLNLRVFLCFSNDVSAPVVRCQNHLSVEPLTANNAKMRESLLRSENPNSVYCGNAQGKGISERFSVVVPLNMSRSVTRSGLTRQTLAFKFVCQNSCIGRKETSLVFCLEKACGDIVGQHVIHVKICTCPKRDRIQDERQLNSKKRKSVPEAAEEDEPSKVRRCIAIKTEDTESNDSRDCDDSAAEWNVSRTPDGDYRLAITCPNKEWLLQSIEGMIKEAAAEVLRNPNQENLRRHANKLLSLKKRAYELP

The target of series [10] is T1, Xlp53. This is another data set of the same source.

Mmp53, sequence (P02340 whole entry): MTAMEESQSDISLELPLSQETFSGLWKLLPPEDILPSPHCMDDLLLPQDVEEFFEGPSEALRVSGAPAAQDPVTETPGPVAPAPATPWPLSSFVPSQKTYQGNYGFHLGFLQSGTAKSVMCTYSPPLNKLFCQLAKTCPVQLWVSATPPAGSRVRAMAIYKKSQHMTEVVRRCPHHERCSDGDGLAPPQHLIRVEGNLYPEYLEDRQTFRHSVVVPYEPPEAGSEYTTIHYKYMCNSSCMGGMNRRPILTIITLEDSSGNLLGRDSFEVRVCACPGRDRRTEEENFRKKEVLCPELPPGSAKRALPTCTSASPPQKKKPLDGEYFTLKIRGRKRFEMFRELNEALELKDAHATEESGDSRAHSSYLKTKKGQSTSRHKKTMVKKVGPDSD
Hsp53, sequence (P04637 whole entry): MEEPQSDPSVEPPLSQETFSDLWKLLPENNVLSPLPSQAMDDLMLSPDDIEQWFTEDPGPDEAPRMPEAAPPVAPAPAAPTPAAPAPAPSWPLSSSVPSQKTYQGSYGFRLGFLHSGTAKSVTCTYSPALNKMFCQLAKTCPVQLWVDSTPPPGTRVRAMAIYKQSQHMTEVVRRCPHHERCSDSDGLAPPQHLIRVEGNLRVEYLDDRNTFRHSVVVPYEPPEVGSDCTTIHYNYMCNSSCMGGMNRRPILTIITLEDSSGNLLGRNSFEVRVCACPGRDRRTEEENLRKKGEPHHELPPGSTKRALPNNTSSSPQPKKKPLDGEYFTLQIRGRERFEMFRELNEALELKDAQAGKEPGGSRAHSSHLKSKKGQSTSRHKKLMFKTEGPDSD
T1 sequence (Q7T1D0 entry or part of it): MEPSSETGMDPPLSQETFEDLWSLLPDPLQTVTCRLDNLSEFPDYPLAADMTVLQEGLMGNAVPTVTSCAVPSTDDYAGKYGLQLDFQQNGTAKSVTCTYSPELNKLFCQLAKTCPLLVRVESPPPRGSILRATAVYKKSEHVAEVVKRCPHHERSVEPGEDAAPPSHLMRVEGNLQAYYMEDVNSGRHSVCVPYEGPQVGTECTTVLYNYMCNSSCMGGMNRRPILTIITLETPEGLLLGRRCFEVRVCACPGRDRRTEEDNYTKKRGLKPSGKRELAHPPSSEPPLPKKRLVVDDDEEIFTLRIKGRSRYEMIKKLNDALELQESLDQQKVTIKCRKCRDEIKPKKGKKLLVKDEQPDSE

B1: G2C (dsDNA)
DNA 1: CGCGCACATGTCCGGACATGTCCCGC
DNA 2: GCGGGACATGTCCGGACATGTGCGCG
Turning to B1, the binding signal is 0.27 ΔlogKd vs ref in series [1]; 0.41 ΔlogKd vs ref in [2]; 0.37 ΔlogKd vs ref in series [3]; 0.15 ΔlogKd vs ref in series [4]; 0.36 ΔlogKd vs ref in series [5]; 0.44 ΔlogKd vs ref in series [6]. The figures for the binding signal in series [7] and in [8] were 0.37 ΔlogKd vs ref and 0.28 ΔlogKd vs ref, respectively.

B2: T6C (dsDNA)
DNA 1: CGCGGACACGTCCGGACATGTCCCGC
DNA 2: GCGGGACATGTCCGGACGTGTCCGCG
Consider B2, for which the binding signal in series [1] was 0.7 ΔlogKd vs ref; in series [2], 0.65 ΔlogKd vs ref; in series [3], 0.52 ΔlogKd vs ref; in [4] it was 0.25 ΔlogKd vs ref; in series [5], 0.57 ΔlogKd vs ref; in [6], 0.62 ΔlogKd vs ref. For the same molecule, the binding signal is 0.53 ΔlogKd vs ref in series [7], 0.25 ΔlogKd vs ref in [9] and 0.36 ΔlogKd vs ref in series [8].

B3: A5C (dsDNA)
DNA 1: CGCGGACCTGTCCGGACATGTCCCGC
DNA 2: GCGGGACATGTCCGGACAGGTCCGCG
On to B3, for which the binding signal in series [1] is 0.48 ΔlogKd vs ref; in series [2], 0.77 ΔlogKd vs ref; in series [3] it was 0.58 ΔlogKd vs ref; in series [4], 0.3 ΔlogKd vs ref; in series [5], 0.57 ΔlogKd vs ref; in series [6] it was 0.64 ΔlogKd vs ref. Besides, the binding signal in series [7] was 0.45 ΔlogKd vs ref; in [9], 0.54 ΔlogKd vs ref; in [8], 0.4 ΔlogKd vs ref.

B4: G7C (dsDNA)
DNA 1: CGCGGACATCTCCGGACATGTCCCGC
DNA 2: GCGGGACATGTCCGGAGATGTCCGCG
In the case of B4, in [10], the Kd is -5.7 log10(M). Also, the binding signal is 1.3 ΔlogKd vs ref in series [2]; 1.68 ΔlogKd vs ref in [3]; 1.33 ΔlogKd vs ref in series [4]; 1.45 ΔlogKd vs ref in [5]; 1.8 ΔlogKd vs ref in series [6]; 0.9 ΔlogKd vs ref in series [7]. Moreover, the binding signal is 1.51 ΔlogKd vs ref in series [9] and 0.67 ΔlogKd vs ref in series [8].

B5: A5G (dsDNA)
DNA 1: CGCGGACGTGTCCGGACATGTCCCGC
DNA 2: GCGGGACATGTCCGGACACGTCCGCG
Regarding B5, in series [10], the Kd was -6.64 log10(M).

B6: A3C (dsDNA)
DNA 1: CGCGGCCATGTCCGGACATGTCCCGC
DNA 2: GCGGGACATGTCCGGACATGGCCGCG
In the case of B6, the binding signal is 0.82 ΔlogKd vs ref in [1]; 0.93 ΔlogKd vs ref in series [3]; 0.66 ΔlogKd vs ref in [7]; 0.75 ΔlogKd vs ref in series [9]; 0.46 ΔlogKd vs ref in series [8].
